Measurements from PMC3742808 (Nature structural & molecular biology, 2013).

Columns and labels:
[1] = target: recombinant human APC/C (without CDH1) (human, UniProt Q9H1A4;Q9UJX6;P30260;Q9UJX5;Q9UJX4;Q13042;Q9UJX3;Q9UJX2;Q9UM13;Q9NYG5;Q9BS18;P60 …); assay: enzyme inhibition
[2] = target: recombinant human APC/C^CDH1 (Anaphase Promoting Complex/Cyclosome with CDH1) (human, UniProt Q9H1A4;Q9UJX6;P30260;Q9UJX5;Q9UJX4;Q13042;Q9UJX3;Q9UJX2;Q9UM13;Q9NYG5;Q9BS18;P60 …); assay: enzyme inhibition

Row | Ki [1] | Ki [2] | Binder
1 | 2000 ± 400 nM | – | EMI1^ZT (ZBR and Tail; residues 363-447) (domain or fragment) SEVAKTLKKNESLKACIRCNSPAKYDCYLQRATCKREGCGFDYCTKCLCNYHTTKDCSDGKLLKASCKIGPLPGTKKSKKNLRRL
2 | – | ≤ 2.5 nM | EMI1^DLZT (D-box, Linker, ZBR, Tail; C-terminal APC/C inhibitory domain, residues 305-447) (domain or fragment) NNNKFSPHASTREYVMFRTPLASVQKSAAQTSLKKDAQTKLSNQGDQKGSTYSRHNEFSEVAKTLKKNESLKACIRCNSPAKYDCYLQRATCKREGCGFDYCTKCLCNYHTTKDCSDGKLLKASCKIGPLPGTKKSKKNLRRL
3 | 220 ± 37 nM | – | EMI1^D(Mut)LZT (EMI1^DLZT with alanines in place of Arg322 and Leu325 of the D-box RxxL motif) (domain or fragment) NNNKFSPHASTREYVMFATPAASVQKSAAQTSLKKDAQTKLSNQGDQKGSTYSRHNEFSEVAKTLKKNESLKACIRCNSPAKYDCYLQRATCKREGCGFDYCTKCLCNYHTTKDCSDGKLLKASCKIGPLPGTKKSKKNLRRL
